Assay results published in US20130005646A1 (Novo Nordisk, published 2013).
Where two headings read alike, the source gives them in different places. Starred links: 1 amine or outer side, 2 acyl side, 3 side chain; linkers in the order of their positions; H or OH if unused. Positions of bridges follow the written chain, without caps; N, C: chain ends. *: point of attachment. C20 diacid = O=C(O)CCCCCCCCCCCCCCCCCCC(=O)*; γGlu = O=C(O)[C@H](CCC(=O)[*:2])N[*:1]

Experiments:
Assay in all cases: cell-based or functional assay
[1] = biological target: T1, human amylin 3(a) receptor (human calcitonin receptor co-expressed with RAMP-3) (human) (UniProt P30988)
T1 sequence (looked up) 1: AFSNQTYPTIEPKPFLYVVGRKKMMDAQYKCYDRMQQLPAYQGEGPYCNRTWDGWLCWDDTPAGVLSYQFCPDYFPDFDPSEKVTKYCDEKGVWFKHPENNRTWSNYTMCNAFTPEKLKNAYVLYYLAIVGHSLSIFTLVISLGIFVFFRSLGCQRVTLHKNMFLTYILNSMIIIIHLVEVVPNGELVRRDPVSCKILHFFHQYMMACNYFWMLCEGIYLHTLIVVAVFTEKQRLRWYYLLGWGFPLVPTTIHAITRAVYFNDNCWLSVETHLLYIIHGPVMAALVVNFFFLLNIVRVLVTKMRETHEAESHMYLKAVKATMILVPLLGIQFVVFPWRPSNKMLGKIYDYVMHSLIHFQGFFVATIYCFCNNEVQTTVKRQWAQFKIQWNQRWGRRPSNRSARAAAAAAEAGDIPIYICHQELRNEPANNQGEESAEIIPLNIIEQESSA
T1 sequence (looked up) 2: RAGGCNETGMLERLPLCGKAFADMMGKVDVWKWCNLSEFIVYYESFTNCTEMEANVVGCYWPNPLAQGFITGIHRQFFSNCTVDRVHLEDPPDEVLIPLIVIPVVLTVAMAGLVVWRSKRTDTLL

[2] = biological target: T2, human amylin 3(a) receptor (human calcitonin receptor + RAMP-3) (human) (UniProt P30988)
T2 sequence (looked up) 1: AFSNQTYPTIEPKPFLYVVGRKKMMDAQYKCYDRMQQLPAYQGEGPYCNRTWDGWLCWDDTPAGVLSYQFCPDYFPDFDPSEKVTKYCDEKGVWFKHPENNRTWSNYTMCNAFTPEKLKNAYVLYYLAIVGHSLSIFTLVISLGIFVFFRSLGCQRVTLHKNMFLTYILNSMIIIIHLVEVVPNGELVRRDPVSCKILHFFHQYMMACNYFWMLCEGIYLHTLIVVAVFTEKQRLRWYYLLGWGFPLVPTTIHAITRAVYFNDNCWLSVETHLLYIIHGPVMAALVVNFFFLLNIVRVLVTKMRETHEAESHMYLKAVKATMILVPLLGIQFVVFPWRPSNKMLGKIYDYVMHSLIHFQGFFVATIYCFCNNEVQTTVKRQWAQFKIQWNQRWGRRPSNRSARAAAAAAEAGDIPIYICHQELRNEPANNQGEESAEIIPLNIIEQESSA
T2 sequence (looked up) 2: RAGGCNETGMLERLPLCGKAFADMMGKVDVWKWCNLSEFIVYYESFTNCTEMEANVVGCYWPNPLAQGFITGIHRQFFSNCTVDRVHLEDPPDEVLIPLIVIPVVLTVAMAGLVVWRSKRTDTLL

[3] = biological target: T1, human amylin 3(a) receptor (human calcitonin receptor co-expressed with RAMP-3) (human); remark: listed apart in the source
[4] = biological target: T3, human amylin 3(a) receptor (human calcitonin receptor with RAMP-3) (human) (UniProt P30988)
T3 sequence (looked up) 1: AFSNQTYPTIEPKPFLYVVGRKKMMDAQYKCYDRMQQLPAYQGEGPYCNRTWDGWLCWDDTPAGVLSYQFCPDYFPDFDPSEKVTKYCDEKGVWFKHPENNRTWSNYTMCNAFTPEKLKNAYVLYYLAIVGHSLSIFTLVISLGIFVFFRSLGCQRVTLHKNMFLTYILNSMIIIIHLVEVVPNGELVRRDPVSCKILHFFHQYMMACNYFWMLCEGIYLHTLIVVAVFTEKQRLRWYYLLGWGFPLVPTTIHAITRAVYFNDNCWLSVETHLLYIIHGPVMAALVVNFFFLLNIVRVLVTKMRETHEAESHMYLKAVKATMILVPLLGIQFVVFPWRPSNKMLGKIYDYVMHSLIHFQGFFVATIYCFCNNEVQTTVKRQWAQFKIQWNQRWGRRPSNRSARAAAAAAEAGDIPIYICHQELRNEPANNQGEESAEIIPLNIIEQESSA
T3 sequence (looked up) 2: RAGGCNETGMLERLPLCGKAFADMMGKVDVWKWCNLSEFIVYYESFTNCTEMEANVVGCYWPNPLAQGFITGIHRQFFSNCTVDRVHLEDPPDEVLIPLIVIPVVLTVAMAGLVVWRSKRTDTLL

[5] = biological target: T4, human calcitonin (a) receptor (human) (UniProt P30988)
T4 sequence (looked up): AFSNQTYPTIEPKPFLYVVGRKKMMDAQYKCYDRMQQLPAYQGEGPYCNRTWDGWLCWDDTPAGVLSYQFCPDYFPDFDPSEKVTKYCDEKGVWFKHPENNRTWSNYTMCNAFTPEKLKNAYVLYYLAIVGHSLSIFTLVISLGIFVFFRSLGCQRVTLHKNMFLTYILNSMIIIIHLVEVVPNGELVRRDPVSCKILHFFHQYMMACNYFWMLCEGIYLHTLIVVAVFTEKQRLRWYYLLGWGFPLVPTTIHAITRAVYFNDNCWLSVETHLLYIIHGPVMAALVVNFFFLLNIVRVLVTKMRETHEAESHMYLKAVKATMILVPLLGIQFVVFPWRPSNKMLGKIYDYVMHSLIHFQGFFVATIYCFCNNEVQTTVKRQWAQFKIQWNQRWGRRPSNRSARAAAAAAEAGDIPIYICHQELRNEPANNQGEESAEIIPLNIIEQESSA

[6] = biological target: T5, human amylin 3(a) receptor (human calcitonin receptor + RAMP-3) (human, UniProt P30988 25-474; O60896 24-148)
T5 sequence (looked up) 1: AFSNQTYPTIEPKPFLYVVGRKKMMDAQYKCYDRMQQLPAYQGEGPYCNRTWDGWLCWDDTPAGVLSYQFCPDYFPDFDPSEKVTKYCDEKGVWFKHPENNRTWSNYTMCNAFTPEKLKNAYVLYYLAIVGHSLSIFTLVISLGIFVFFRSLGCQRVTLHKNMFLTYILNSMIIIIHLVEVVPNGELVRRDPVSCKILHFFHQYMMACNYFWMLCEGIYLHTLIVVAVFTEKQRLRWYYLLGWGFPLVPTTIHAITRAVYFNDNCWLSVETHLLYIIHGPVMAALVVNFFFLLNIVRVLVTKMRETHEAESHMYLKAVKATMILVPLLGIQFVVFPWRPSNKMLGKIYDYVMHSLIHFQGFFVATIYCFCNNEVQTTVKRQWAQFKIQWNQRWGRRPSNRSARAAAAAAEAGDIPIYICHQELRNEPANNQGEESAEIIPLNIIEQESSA
T5 sequence (looked up) 2: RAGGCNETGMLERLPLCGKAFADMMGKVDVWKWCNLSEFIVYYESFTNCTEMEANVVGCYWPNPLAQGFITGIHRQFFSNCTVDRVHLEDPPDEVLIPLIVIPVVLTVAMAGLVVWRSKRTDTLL

[7] = biological target: T6, human calcitonin (a) receptor (human, UniProt P30988 25-474)
T6 sequence (looked up): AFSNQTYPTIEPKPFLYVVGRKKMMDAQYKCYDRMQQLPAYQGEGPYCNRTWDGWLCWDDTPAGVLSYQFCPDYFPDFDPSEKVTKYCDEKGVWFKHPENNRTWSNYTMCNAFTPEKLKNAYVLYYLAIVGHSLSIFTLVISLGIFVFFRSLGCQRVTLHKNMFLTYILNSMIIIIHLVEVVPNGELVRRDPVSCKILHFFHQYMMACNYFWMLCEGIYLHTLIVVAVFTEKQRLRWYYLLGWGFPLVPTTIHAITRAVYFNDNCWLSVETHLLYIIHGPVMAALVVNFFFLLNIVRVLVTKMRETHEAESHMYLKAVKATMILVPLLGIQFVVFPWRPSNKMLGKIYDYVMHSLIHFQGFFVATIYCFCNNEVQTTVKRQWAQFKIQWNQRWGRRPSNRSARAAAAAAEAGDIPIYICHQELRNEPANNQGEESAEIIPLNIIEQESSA

[8] = biological target: T7, rat amylin 3(a) receptor (rat calcitonin(a) receptor + rat RAMP3) (rat, UniProt P32214 25-516; Q9JJ73 23-147)
T7 sequence (looked up) 1: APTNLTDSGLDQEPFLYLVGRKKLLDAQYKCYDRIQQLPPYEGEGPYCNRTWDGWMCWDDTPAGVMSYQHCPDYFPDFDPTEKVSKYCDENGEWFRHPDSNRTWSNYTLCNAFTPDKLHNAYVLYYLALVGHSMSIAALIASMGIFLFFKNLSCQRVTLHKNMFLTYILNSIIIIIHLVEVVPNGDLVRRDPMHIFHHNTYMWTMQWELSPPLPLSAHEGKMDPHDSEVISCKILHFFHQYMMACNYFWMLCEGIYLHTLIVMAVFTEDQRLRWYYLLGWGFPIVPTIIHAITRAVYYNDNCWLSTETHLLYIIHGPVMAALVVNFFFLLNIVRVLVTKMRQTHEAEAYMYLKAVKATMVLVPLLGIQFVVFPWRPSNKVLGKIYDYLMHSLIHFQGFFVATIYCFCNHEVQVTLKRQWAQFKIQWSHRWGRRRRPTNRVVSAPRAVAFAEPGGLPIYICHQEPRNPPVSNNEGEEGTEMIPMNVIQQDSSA
T7 sequence (looked up) 2: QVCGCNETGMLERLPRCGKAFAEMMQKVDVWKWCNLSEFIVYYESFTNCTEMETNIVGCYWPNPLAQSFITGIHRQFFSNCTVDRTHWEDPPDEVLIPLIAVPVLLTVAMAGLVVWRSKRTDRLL

[9] = biological target: T8, rat calcitonin (a) receptor (rat, UniProt P32214 25-516)
T8 sequence (looked up): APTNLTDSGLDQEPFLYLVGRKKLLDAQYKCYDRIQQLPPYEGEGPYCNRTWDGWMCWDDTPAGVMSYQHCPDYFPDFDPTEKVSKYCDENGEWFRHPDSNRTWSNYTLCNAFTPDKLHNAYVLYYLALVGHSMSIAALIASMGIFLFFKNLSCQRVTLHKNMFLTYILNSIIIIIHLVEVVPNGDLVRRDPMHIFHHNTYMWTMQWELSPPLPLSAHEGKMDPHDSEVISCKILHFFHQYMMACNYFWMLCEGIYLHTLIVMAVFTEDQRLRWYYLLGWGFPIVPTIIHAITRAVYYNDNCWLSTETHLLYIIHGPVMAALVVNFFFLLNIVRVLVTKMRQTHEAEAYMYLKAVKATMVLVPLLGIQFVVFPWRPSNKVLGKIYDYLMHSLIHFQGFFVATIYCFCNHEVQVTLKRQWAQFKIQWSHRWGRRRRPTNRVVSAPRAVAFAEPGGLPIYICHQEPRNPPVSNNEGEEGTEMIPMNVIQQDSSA

Binder | Amylin receptor human EC50 (pM) [1] | Amylin receptor human EC50 [2] | Amylin receptor human EC50 (pM) [3] | Amylin receptor human EC50 (pM) [4] | CTa receptor human EC50 [5] | CTa receptor human EC50 (pM) [5] | Amylin receptor human EC50 [6] | CTa receptor human EC50 [7] | Amylin receptor rat EC50 [8] | CTa receptor rat EC50 [9]
{C20 diacid-γGlu}-SSGSSGHCNTATCATQRLAEFLHHSSNNFGPILPPTNVGSNTY-NH2 (disulfide 8-13) | 306 pM | 306 pM | 306 pM | 306 pM | 669 pM | 669 pM |  |  |  | 
{C20 diacid-γGlu}-ECGTATCATQRLAEFLVRSSSSFGAPLSSTEVGSRTY-NH2 (disulfide 2-7; SMILES CC(C)C[C@H](NC(=O)[C@H](CCCNC(=N)N)NC(=O)[C@H](CCC(N)=O)NC(=O)[C@@H](NC(=O)[C@H](C)NC(=O)[C@@H]1CSSC[C@H](NC(=O)[C@H](CCC(=O)O)NC(=O)CC[C@H](NC(=O)CCCCCCCCCCCCCCCCCCC(=O)O)C(=O)O)C(=O)NCC(=O)N[C@@H]([C@@H](C)O)C(=O)N[C@@H](C)C(=O)N[C@@H]([C@@H](C)O)C(=O)N1)[C@@H](C)O)C(=O)N[C@@H](C)C(=O)N[C@@H](CCC(=O)O)C(=O)N[C@@H](Cc1ccccc1)C(=O)N[C@@H](CC(C)C)C(=O)N[C@H](C(=O)N[C@@H](CCCNC(=N)N)C(=O)N[C@@H](CO)C(=O)N[C@@H](CO)C(=O)N[C@@H](CO)C(=O)N[C@@H](CO)C(=O)N[C@@H](Cc1ccccc1)C(=O)NCC(=O)N[C@@H](C)C(=O)N1CCC[C@H]1C(=O)N[C@@H](CC(C)C)C(=O)N[C@@H](CO)C(=O)N[C@@H](CO)C(=O)N[C@H](C(=O)N[C@@H](CCC(=O)O)C(=O)N[C@H](C(=O)NCC(=O)N[C@@H](CO)C(=O)N[C@@H](CCCNC(=N)N)C(=O)N[C@H](C(=O)N[C@@H](Cc1ccc(O)cc1)C(N)=O)[C@@H](C)O)C(C)C)[C@@H](C)O)C(C)C) |  |  |  |  |  |  | 1440 pM | 672 pM | 4510 pM | 1750 pM
{C20 diacid-γGlu}-HHHCNTATCATQRLAEFLHHSSNNFGPILPPTNVGSRTY-NH2 (disulfide 4-9; SMILES CC[C@H](C)[C@H](NC(=O)[C@@H]1CCCN1C(=O)CNC(=O)[C@H](Cc1ccccc1)NC(=O)[C@H](CC(N)=O)NC(=O)[C@H](CC(N)=O)NC(=O)[C@H](CO)NC(=O)[C@H](CO)NC(=O)[C@H](Cc1c[nH]cn1)NC(=O)[C@H](Cc1c[nH]cn1)NC(=O)[C@H](CC(C)C)NC(=O)[C@H](Cc1ccccc1)NC(=O)[C@H](CCC(=O)O)NC(=O)[C@H](C)NC(=O)[C@H](CC(C)C)NC(=O)[C@H](CCCNC(=N)N)NC(=O)[C@H](CCC(N)=O)NC(=O)[C@@H](NC(=O)[C@H](C)NC(=O)[C@@H]1CSSC[C@H](NC(=O)[C@H](Cc2c[nH]cn2)NC(=O)[C@H](Cc2c[nH]cn2)NC(=O)[C@H](Cc2c[nH]cn2)NC(=O)CC[C@H](NC(=O)CCCCCCCCCCCCCCCCCCC(=O)O)C(=O)O)C(=O)N[C@@H](CC(N)=O)C(=O)N[C@@H]([C@@H](C)O)C(=O)N[C@@H](C)C(=O)N[C@@H]([C@@H](C)O)C(=O)N1)[C@@H](C)O)C(=O)N[C@@H](CC(C)C)C(=O)N1CCC[C@H]1C(=O)N1CCC[C@H]1C(=O)N[C@H](C(=O)N[C@@H](CC(N)=O)C(=O)N[C@H](C(=O)NCC(=O)N[C@@H](CO)C(=O)N[C@@H](CCCNC(=N)N)C(=O)N[C@H](C(=O)N[C@@H](Cc1ccc(O)cc1)C(N)=O)[C@@H](C)O)C(C)C)[C@@H](C)O) |  |  |  |  |  |  | 192 pM | 429 pM | 133 pM | 1340 pM
